Assay [1] concerns the target T1, UBXN7-UAS recombinant protein (human, UniProt O94888 94-284).
T1 construct: UAS domain of human UBXN7 (aa 94-284); also called UAS domain; source: E. coli BL21, purified (Glutathione Sepharose, released by GST-3C protease)
T1 sequence (looked up): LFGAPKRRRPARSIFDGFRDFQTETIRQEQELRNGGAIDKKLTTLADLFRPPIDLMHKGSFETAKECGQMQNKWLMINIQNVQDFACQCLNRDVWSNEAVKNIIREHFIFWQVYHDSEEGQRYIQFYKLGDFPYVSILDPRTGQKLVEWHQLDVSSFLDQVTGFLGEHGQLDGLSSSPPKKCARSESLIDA
Briefly: pull-down; in vitro: GST-RING domains on beads with UBE2D2, with or without UBXN7-UAS; Coomassie staining. The note with it: both partners purified.

Assay [2] concerns the target T2, UBE2D2 (human, UniProt P62837 1-147).
T2 construct: UBE2D2 without GST; probably released from GST-UBE2D2 by GST-3C protease as told in general for the PGEX4T3-3C constructs; also called recombinant UBE2D2; source: recombinant
Described as above. The note with it: both partners purified.

B1: GST-TOPORS-RING (domain or fragment, human, UniProt Q9NS56 68-176, looked up)
chain: MASAAKEFKMDNFSPKAGTSKLQQTVPADASPDSKCPICLDRFDNVSYLDRCLHKFCFRCVQEWSKNKAECPLCKQPFDSIFHSVRAEDDFKEYVLRPSYNGSFVTPDR
notes: human TOPORS-RING (aa 68-176); the methods tell its cloning into p3xFlag-CMV-10 only, not into the GST vector; also called minimal RING domain of TOPORS; TOPORS RING domain; source: recombinant, on Glutathione Sepharose
On to B1, for which the binding result in assay [1] and in assay [2] was “binds” each time.

Source of the values: PMC10080908 (BMC Biology, 2023).
